Test results: paper PMC6237438

Tests used:
[1] = molecular target: VRC01GL IgG (inferred germline precursor of the VRC01 antibody) (human); assay: BLI; IgG immobilised on anti-AHC biosensors (20 µg/ml in PBS); DS-SOSIP trimer or 426c core in solution, dilution series; Octet Red 96, 29°C, 500 r.p.m.; kinetic buffer (1X PBS, 0.01% BSA, 0.02% Tween 20, 0.005% NaN3); 1:1 binding model; relative apparent affinities
12A21GL IgG (human) = assay: as above
VRC01GL Fab (human) = assay: BLI; Fab immobilised on anti-human Fab-CH1 (FAB2G) biosensors; 426c core in solution; Octet Red 96, 29°C, 500 r.p.m.; kinetic buffer (1X PBS, 0.01% BSA, 0.02% Tween 20, 0.005% NaN3); 1:1 binding model; relative apparent affinities
[2] = molecular target: VRC01GL IgG (inferred germline precursor of the VRC01 antibody); assay: BLI; details: 426c core (293F-expressed) injected at 0.5, 1, 2.5, 4, 5, 10, 20, 40, 80, 160 µM

Substance	Kd [1]	Kd [2]	also measured
426c DS-SOSIP D3 trimer (from UniProt Q2N0S6 1-860) (complex)	43 nM		
426c S278A core, HEK293 GnTI-/--expressed (domain or fragment)	204 nM		
426c S278T core, HEK293 GnTI-/--expressed (domain or fragment)			fold change of KD against the 426c core [1]: 10 fold; fold change of KD against the 426c core (12A21GL IgG (human)): 10 fold
426c core (wild-type NLGSs), HEK293 GnTI-/--expressed (domain or fragment)	2000 nM		Kd (VRC01GL Fab (human)): 15000 nM
426c core (wild-type NLGSs), HEK293F-expressed (domain or fragment)			Kd (VRC01GL Fab (human)): 11000 nM
426c core (wild-type NLGSs), HEK293F-expressed S278A		1900 nM	
426c core (wild-type NLGSs), HEK293F-expressed S278A; T462A		2500 nM	
426c core (wild-type NLGSs), HEK293F-expressed S278A; T465A		8900 nM	
EndoH-treated 426c core (HEK293 GnTI-/--expressed) (domain or fragment)	245 nM		
